# Laboratory results: patent publication US20210270842A1 (DYAX, published 2021)
# Substitutions are numbered along the chain they refer to.
# T1: intact high molecular weight kininogen (HMWK) (Homo sapiens, UniProt P01042 19-644)
# T1 construct: also called intact HMWK; 1-chain HMWK
# T1 sequence: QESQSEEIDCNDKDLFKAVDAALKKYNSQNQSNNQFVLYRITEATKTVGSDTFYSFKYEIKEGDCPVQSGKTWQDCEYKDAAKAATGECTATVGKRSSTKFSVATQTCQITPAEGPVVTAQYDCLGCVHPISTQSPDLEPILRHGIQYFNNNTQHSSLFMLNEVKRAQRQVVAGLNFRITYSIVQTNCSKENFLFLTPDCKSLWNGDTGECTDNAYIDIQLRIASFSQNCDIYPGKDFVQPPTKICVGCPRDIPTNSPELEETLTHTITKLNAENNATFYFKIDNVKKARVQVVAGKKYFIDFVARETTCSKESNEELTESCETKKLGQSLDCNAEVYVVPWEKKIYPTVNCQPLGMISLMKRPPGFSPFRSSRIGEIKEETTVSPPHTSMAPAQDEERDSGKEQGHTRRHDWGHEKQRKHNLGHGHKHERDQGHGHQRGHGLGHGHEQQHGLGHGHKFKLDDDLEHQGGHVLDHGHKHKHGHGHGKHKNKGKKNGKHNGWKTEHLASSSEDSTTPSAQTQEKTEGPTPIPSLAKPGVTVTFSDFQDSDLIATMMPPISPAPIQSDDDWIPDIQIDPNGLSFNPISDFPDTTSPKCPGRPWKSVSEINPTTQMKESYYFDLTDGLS
# B1: 559B-M0061-G06 (Fab, V domains shown)
# VH: EVQLLESGGGLVQPGGSLRLSCAASGFTFSKYTMWWVRQAPGKGLEWVSVISSSGGKTYYADSVKGRFTISRDNSKNTLYLQMNSLRAEDTAVYYCARTANRAFDIWGQGTMVTVSS
# VL: DIQMTQSPAALSVSPGERATLSCRASQSVSSDLAWYQQKPGQAPRLLIHGASTRATGIPARFSGSGSGREFTLTISSLQSEDFAVYYCQQYNDWPPLFGPGTKVNIK
# B2: 559B-M0003-C08 (Fab, V domains shown)
# VH: EVQLLESGGGLVQPGGSLRLSCAASGFTFSPYMMYWVRQAPGKGLEWVSSISPSGGKTWYADSVKGRFTISRDNSKNTLYLQMNSLRAEDTAVYYCARLGGSSSYYYYYYYGMDVWGQGTTVTVSS
# VL: QSALTQSPSASGTPGQRVTISCSGSSSNIGGNTVNWYQQFPGTAPKLLIYSNNQRPSGVPDRFSGSKSGTSASLAISGLQSEDEAIYYCASWDDRLNGHWVFGGGTRLTVL
# B3: 559B-M0067-E02 (Fab, V domains shown)
# VH: EVQLLESGGGLVQPGGSLRLSCAASGFTFSLYPMVWVRQAPGKGLEWVSSIYPSGGFTTYADSVKGRFTISRDNSKNTLYLQMNSLRAEDTAVYYCARSSRYYYYGMDVWGQGTTVTVSS
# VL: QYELTQPPSMSGTPGQRVTISCSGSSSNIGSEYVYWFQQLPGTAPKLLIYRNDQRPSGVPDRFSGSKSGTSASLAISGLRSEDETDYYCSTWDDTLRTGVFGGGTKVTVL
# B4: 559B-M0044-E09 (Fab, V domains shown)
# VH: EVQLLESGGGLVQPGGSLRLSCAASGFTFSQYSMGWVRQAPGKGLEWVSSIYSSGGSTQYADSVKGRFTISRDNSKNTLYLQMNSLRAEDTATYYCARTRRGWFGEDYYYYMDVWGKGTTVTVSS
# VL: DIQMTQSPSSLSASVGDRITITCRASQGIRNDVGWYQQKPGKAPQRLIYAASSLQSGVPSRFSGSGSGTEFTLTISSLQPEDFATYYCLQHNSYPLTFGGGTKVEIK
# B5: 559B-M0036-G12 (Fab, V domains shown)
# VH: B4 VH with Q31R, S33Y, G35A, S50G, Y52V, S53P, S57Q, Q59G, T93V, T120L
# VL: DIQMTQSPGTLSLSPGERATVSCRASQSVGSTYLAWYQHKPGQAPRLLIYGASSRATGIPDRFSGSGSGTDFTLTISSLEPEDFAIYYCQHFHTSPPGITFGQGTRLEIK
# B6: 559B-M0048-D12 (Fab, V domains shown)
# VH: EVQLLESGGGLVQPGGSLRLSCAASGFTFSRYQMTWVRQAPGKGLEWVSSIGSSGGFTNYADSVKGRFTISRDNSKNTLYLQMNSLRAEDTAVYYCARLPANFYYYMDVWGKGTTVTVSS
# VL: DIQMTQSPSSLSASVGDRVTITCRASQNIYSFLNWYQQKPGKAPKLLIYATSSLQSGVPSRFSGSGSGTDFTLTISSLQPEDFASYYCQQNYNIPWTFGQGTKVEIK
# B7: 559B-M0047-H01 (Fab, V domains shown)
# VH: EVQLLESGGGLVQPGGSLRLSCAASGFTFSFYMMYWVRQAPGKGLEWVSSISSSGGFTRYADSVKGRFTISRDNSKNTLYLQMNSLRAEDTAVYYCARVRGLAVAAPDYWGQGTLVTVSS
# VL: QSELTQPASVSGSPGQSITISCIGTSSDIGTYNYVSWYQQHPGKAPKLMIYDVNTRPSGVSDRFSGSKSGNTASLTISGLQAEDEADYYCSSYTTSVTWVFGGGTTLTVL
# B8: 559B-M0042-E06 (Fab, V domains shown)
# VH: EVQLLESGGGLVQPGGSLRLSCAASGFTFSMYKMSWVRQAPGKGLEWVSVISPSGGRTYYADSVKGRFTISRDNSKNTLYLQMNSLRAEDTAVYYCARGTRTSGLDYWGQGTLVTVSS
# VL: QSALTQPASVSGSPGQSITISCTGTSSDVGGYKYVSWYQQHPGKAPKLVIYEVSNRPSGVSNRFSGSKSGNTASLTISGLQAEDEADYYCSSYTSSTTVVFGGGTKLTVL
# B9: 559B-M0039-D08 (Fab, V domains shown)
# VH: EVQLLESGGGLVQPGGSLRLSCAASGFTFSNYAMQWVRQAPGKGLEWVSWIYSSGGPTYYADSVKGRFTISRDNSKNTLYLQMNSLRAEDTAVYYCARGLPGQPFDYWGQGTLVTVSS
# VL: QSELTQPPSASGTPGQRVTISCSGSSSNIGNNYVYWYQQFPGTAPKLLIYRNNQRPSGVPDRFSGSKSGTSASLAISGLRSEDEADYYCATWDDRLSGWVFGGGTKLTVL
# B10: 559B-M0021-G11 (Fab, V domains shown)
# VH: EVQLLESGGGLVQPGGSLRLSCAASGFTFSPYPMTWVRQAPGKGLEWVSGISSSGGFTPYADSVKGRFTISRDNSKNTLYLQMNSLRAEDTAVYYCARMVRGVIKAFDIWGQGTMVTVSS
# VL: B9 VL with S2Y, N31S, N32H, Y35F, F40L, T43A, D94N, R95S, G98A
# B11: 559B-M0019-E12 (Fab, V domains shown)
# VH: EVQLLESGGGLVQPGGSLRLSCAASGFTFSGYNMYWVRQAPGKGLEWVSRISPSGGWTSYADSVKGRFTISRDNSKNTLYLQMNSLRAEDTAVYYCTRGQWMDWWGQGTMVTVSS
# VL: DIQMTQSPSSLSASVGDRVIITCRASQNITGYLNWYQQKPGKAPNLLIYDASRMNTGVPSRFRGSGSGTDYILTIYKLEPEDIGTYFCQHTDDFSVTFGGGTKVDLK
# B12: 559B-M0044-C05 (Fab, V domains shown)
# VH: EVQLLESGGGLVQPGGSLRLSCAASGFTFSIYQMYWVRQAPGKGLEWVSSIYSSGGRTFYADSVKGRFTISRDNSKNTLYLQMNSLRAEDTAVYYCATRGSWYVGGNEYFQHWGQGTLVTVSS
# VL: QSVLTQSPSLSLSPGQTASIPCSGDTLGNKFVSWYQQKPGQSPVLVIYQDTKRPSGIPERFSGSNSGNTATLTITGTQAMDEADYYCQVWDSNSYAFGPGTKVTVL
# B13: 559B-M0017-H08 (Fab, V domains shown)
# VH: EVQLLESGGGLVQPGGSLRLSCAASGFTFSPYWMHWVRQAPGKGLEWVSVISPSGGGTGYADSVKGRFTISRDNSKNTLYLQMNSLRAEDTAVYYCARESRGSGSHEDYWGQGTLVTVSS
# VL: DIQMTQSPATLSLSPGERATLSCRASQSVSSYLAWYQQKPGQAPRLLIYGASNRGTGIPARFSGSGSGTEFTLTISSLQSEDFAVYFCQQYKNWPNLTFGGGTKVDIK
# B14: 559B-M0038-H03 (Fab, V domains shown)
# VH: EVQLLESGGGLVQPGGSLRLSCAASGFTFSKYDMHWVRQAPGKGLEWVSRISSSGGKTEYADSVKGRFTISRDNSKNTLYLQMNSLRAEDTAVYYCAREYRYCTANTCSLYGMDVWGRGTTVTVSS
# VL: DIQMTQSPSSLSASVGDRVAITCRTSQGVRSDFAWYQQTPGKAPRRLIYAAFILDNGVPSRFSGSGSGTEFTLTISSLQPEDFATYYCQQSYSTPLTFGGGTKVEMK
# B15: 559B-M0068-C07 (Fab, V domains shown)
# VH: EVQLLESGGGLVQPGGSLRLSCAASGFTFSSYQMHWVRQAPGKGLEWVSGIYSSGGSTPYADSVKGRFTISRDNSKNTLYLQMNSLRAEDTAVYYCARGHHGMDVWGQGTTVTVSS
# VL: DIQMTQSPSSVSASVGDRVTITCRASQGISSWLAWYQQKPGKAPKLLIYAASNLQSGVPSRFSGSGSGTDFTLTISSLQPEDFATYYCQKYNIAPYTFGQGTKLEIK
# B16: 559B-M0038-F04 (Fab, V domains shown)
# VH: EVQLLESGGGLVQPGGSLRLSCAASGFTFSKYEMMWVRQAPGKGLEWVSSISPSGGYTMYADSVKGRFTISRDNSKNTLYLQMNSLRAEDTAVYYCARHRSKWNDAPFDSWGQGTLVTVSS
# VL: DIQMTQSPSSLSASVGDRVAITCRASQSIDTYLNWYQQKPGKAPKLLIYAASKLEDGVPSRFSGSGTGTDFTLTIRSLQPEDFASYFCQQSYSSPGITFGPGTKVEIK
# B17: 559B-M0039-H06 (Fab, V domains shown)
# VH: EVQLLESGGGLVQPGGSLRLSCAASGFTFSAYDMHWVRQAPGKGLEWVSSIWPSGGGTYYADSVKGRFTISRDNSKNTLYLQMNSLRAEDTAVYYCARGDYDYGDFTDAFDIWGQGTMVTVSS
# VL: QSALTQPASVSGSPGQSITISCTGTSSDVGSYNLVSWYQQHPGKAPKLMIYEGSKRPSGVPDRFSGSKSGNTASLIISGLQAEDEADYYCCSYAGSYSYVFGTGTRVTVL
# B18: 559B-X0004-B05 (Fab, V domains shown)
# VH: EVQLLESGGGLVQPGGSLRLSCAASGFTFHYRMMWVRQAPGKGLEWVSYISSSGGYTAYADSVKGRFTISRDNSKNTLYLQMNSLRAEDTAVYYCAAKRNRAFDIWGQGTMVTVSS
# VL: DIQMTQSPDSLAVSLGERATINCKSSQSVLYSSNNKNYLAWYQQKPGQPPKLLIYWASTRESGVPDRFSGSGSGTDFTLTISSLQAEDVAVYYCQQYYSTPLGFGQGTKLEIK
# Molecular target: T1, intact high molecular weight kininogen …
# Assay: ELISA: Fab coated on 96-well plate, LowCross block, biotinylated antigen, streptavidin-HRP; signal over uncoated well
# Experimental: Thirty-six purified Fab clones (see Table 2 below) were assessed for binding to cleaved HWMK, intact HMWK, and LWMK using the immunoassay described in Example 1. Specifically, each of the purified Fab clones was immobilized on 96-well assay plates at a concentration of […]) in a total volume of 100 μL in PBS and incubated overnight at 2-8° C. The assay plates were blocked using LowCross blocking buffer. Biotinylated intact HMWK, biotinylated cleaved HMWK or biotinylated LMWK ([…]) was added to each well in a total volume of 100 μL and incubated for 2 hours prior to washing with a wash buffer. HRP-labeled streptavidin was added to each well at a concentration of 100 ng/mL, and the signal was developed using Ultra TMB Substrate. The signal to noise ratio was calculated using the signal observed upon the addition of the biotinylated protein to an uncoated well. (FIG. 2, panels A and B). Based on the ELISA results, the antibodies can be divided among 5 categories (Table 2).
row,binding result,Binder
1,binds,B1
2,binds,B2
3,binds,B3
4,binds,B4
5,binds,B5
6,binds,B6
7,binds,B7
8,binds,B8
9,binds,B9
10,binds,B10
11,binds,B11
12,binds,B12
13,binds,B13
14,binds,B14
15,binds,B15
16,binds,B16
17,binds,B17
18,binds,B18
